# Measurements as given in paper PMC10419091.
# Tests used:
# [1] = viscosimetry; falling-ball micro-viscometer, 20 °C; Tpm 2 mg/mL in 30 mM Hepes-Na pH 7.3, 100 mM NaCl, 4 mM DTT; viscosity over buffer viscosity; end-to-end interaction of adjacent Tpm molecules; conditions: other: viscosimetry
# [2] = molecular target: filamentous actin (F-actin) from rabbit m. psoas (rabbit) (UniProt P68135); test: temperature dependence of light scattering; thermally induced dissociation of Tpm from phalloidin-stabilized F-actin; 20 µM F-actin, 10.5 µM Tpm, 30 mM Hepes-Na pH 7.3, 100 mM NaCl; light scattering at 90°, 350 nm, heating 1 °C/min; Tdiss: temperature of a 50% decrease
# [3] = molecular target: filamentous actin (F-actin) from rabbit m. psoas (rabbit) (UniProt P68135); test: co-sedimentation; 10 µM F-actin with 0.5 to 7.5 µM Tpm in 30 mM Hepes-Na pH 7.3, 200 mM NaCl; 40 min at 25 °C, then 40 min at 100,000 g at 4 °C; supernatants and pellets by SDS-PAGE; apparent affinity (K50%: Tpm concentration at which half of the actin is saturated)
Substance,viscosity after subtraction of the buffer viscosity [1] [mPa∙s],Tdiss [2] [°C],K50% [3] [µM]
"wild-type cardiac tropomyosin 1.1 isoform (Tpm1.1), recombinant, with Ala-Ser N-terminal extension",0.31 ± 0.01,,
"human E98K Tpm1.1 mutant (cardiac tropomyosin 1.1 with Glu98Lys), recombinant, with Ala-Ser N-terminal extension (natural protein)",,42.4,2.57
"human E98K Tpm1.1 mutant (cardiac tropomyosin 1.1 with Glu98Lys), recombinant, with Ala-Ser N-terminal extension",0.28 ± 0.01,,
"wild-type cardiac tropomyosin 1.1 isoform (Tpm1.1), recombinant, with Ala-Ser N-terminal extension (natural protein)",,45.5,2.45
